Test results published in the supplement of paper PMC10126150.
± gives the standard deviation of the averaged measurements.

Tested on: ATP
Assay: switch fluorescence ratio, 500 uM ATP over buffer (Cy3 cluster intensity, sum of 5 cycles each) (fold (ratio)); higher = stronger signal-on switching upon ATP binding; sequences stand for … in TCGTCGGCAGCGTCAGATGTGTATAAGAGACAGTTTTTTTTTTTTTTTTTTTTTTTTT…TC
Details: aptamer strand: ATP DNA aptamer (quencher-CACCTGGGGGAGTATTGCGGAGGAAGG + anchor), 100 nM annealed; ATP concentration: 500 uM
Outline: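 Clusters carrying Cy3-labelled switching strands on a modified Illumina MiSeq flow-cell were annealed to 100 nM quencher-labelled ATP aptamer and imaged in selection buffer. They were imaged again after 15 min with 500 uM ATP at 22 °C, over five buffer/ATP cycles with NaOH stripping and re-annealing in between. For each cluster, the fluorescence ratio is the summed Cy3 intensity of the target cycles divided by that of the buffer cycles, averaged per switch-domain sequence. Clusters outside 100-1000 RFU were left out.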
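Note: ATP exposure 15 min at 22 °C before imaging.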

| Sequence | switch fluorescence ratio |
| --- | --- |
| GCAATTAAAG | 1.12 ± 0.14 |
| GCAATTAATG | 1 ± 0.015 |
| GCAATTCTAC | 3.085 ± 0.025 |
| GCAATTGAGT | 0.997 ± 0.036 |
| GCAATTGGTC | 1.25 ± 0.06 |
| GCAATTTGAT | 1.01 ± 0.02 |
| GCACATAGGG | 1.02 ± 0.011 |
| GCACATGAGA | 1.02 ± 0.021 |
| GCACCATTCC | 1.72 ± 0.07 |
| GCACCCCGCC | 1.33 ± 0.036 |
| GCACCGGGGC | 0.971 ± 0.015 |
| GCACGAGTGC | 0.97 ± 0.02 |
| GCACGCCGAG | 1.01 ± 0.012 |
| GCACGCCTGG | 1.0842 ± 0.00097 |
| GCACGGGCCC | 0.99 ± 0.028 |
| GCACGGGGGA | 0.9884 ± 0.0077 |
| GCACGTAGCG | 1.06 ± 0.046 |
| GCACTCAGGC | 0.994 ± 0.03 |
| GCACTCGGTG | 1.01 ± 0.048 |
| GCACTGGT | 1.04 ± 0.062 |
| GCACTGGTAT | 1.05 ± 0.024 |
| GCACTTCCCT | 1.19 ± 0.014 |
| GCAGATGGTT | 1.01 ± 0.015 |

| Sequence | switch fluorescence ratio |
| --- | --- |
| GCAGATTTTG | 0.98 ± 0.038 |
| GCAGCAGGGG | 1.84 ± 0.23 |
| GCAGCCCCTG | 1.02 ± 0.048 |
| GCAGCGTTCT | 1.04 ± 0.069 |
| GCAGCTGGG | 1.03 ± 0.039 |
| GCAGGATCCG | 0.99684 ± 0.00077 |
| GCAGGATGAA | 0.97 ± 0.042 |
| GCAGGGATGC | 1 ± 0.057 |
| GCAGGGGACG | 1.05 ± 0.015 |
| GCAGGGGCCC | 1.02 ± 0.027 |
| GCAGGGGGCC | 1.4 ± 0.63 |
| GCAGGGTGCG | 1 ± 0.032 |
| GCAGGGTGGC | 1 ± 0.062 |
| GCAGGTGACT | 1.33 ± 0.077 |
| GCAGGTTCAG | 0.975 ± 0.021 |
| GCAGGTTTTG | 0.987 ± 0.04 |
| GCAGTAAATA | 1.009 ± 0.0086 |
| GCAGTAGCTG | 0.998 ± 0.011 |
| GCAGTAGGGG | 0.989 ± 0.015 |
| GCAGTCAAGC | 1.08 ± 0.011 |
| GCAGTCCGAG | 1.07 ± 0.043 |
| GCAGTCCTTT | 0.958 ± 0.029 |
| GCAGTCTGCC | 1.02 ± 0.07 |

| Sequence | switch fluorescence ratio |
| --- | --- |
| GCAGTCTGGG | 0.991 ± 0.01 |
| GCAGTGGGGG | 1 ± 0.08 |
| GCAGTGGGTT | 1.02 ± 0.074 |
| GCAGTTAAAC | 1.04 ± 0.045 |
| GCAGTTGCTG | 0.999 ± 0.02 |
| GCAGTTTTCA | 1.04 ± 0.095 |
| GCATAAGGGG | 0.992 ± 0.018 |
| GCATAGAGCG | 1.02 ± 0.065 |
| GCATAGGTTA | 1 ± 0.015 |
| GCATCACGTT | 1 ± 0.029 |
| GCATCCCGAG | 1.02 ± 0.025 |
| GCATCGAGGC | 1.01 ± 0.14 |
| GCATCTGTAG | 1 ± 0.067 |
| GCATGAAGTA | 0.99 ± 0.017 |
| GCATGACCAG | 0.974 ± 0.026 |
| GCATGGAGGG | 1.01 ± 0.025 |
| GCATGGCCTA | 0.997 ± 0.021 |
| GCATGTATAT | 0.978 ± 0.045 |
| GCATGTATGG | 0.983 ± 0.044 |
| GCATGTCAGT | 0.9762 ± 0.00048 |
| GCATGTCGGG | 1.03 ± 0.015 |
| GCATGTCTTG | 1 ± 0.028 |
| GCATGTGAAA | 1 ± 0.015 |

| Sequence | switch fluorescence ratio |
| --- | --- |
| GCATTAAGAC | 1.23 ± 0.091 |
| GCATTAAGGG | 1.01 ± 0.039 |
| GCATTAATCG | 1.01 ± 0.025 |
| GCATTCGCCT | 1.08 ± 0.035 |
| GCATTGACGG | 1.03 ± 0.02 |
| GCATTGTGTA | 0.9995 ± 0.003 |
| GCATTTAATG | 1 ± 0.05 |
| GCATTTCCCG | 1.06 ± 0.091 |
| GCATTTTCAG | 0.989 ± 0.021 |
| GCATTTTCAT | 0.9766 ± 0.0094 |
| GCCAAATTAG | 0.956 ± 0.011 |
| GCCAAATTGG | 1.02 ± 0.0071 |
| GCCAAGGGAT | 0.9721 ± 0.0082 |
| GCCACAGTAC | 3.04 ± 0.098 |
| GCCAGAGAGG | 1.005 ± 0.0091 |
| GCCAGAGCGA | 1.27 ± 0.0013 |
| GCCAGGGAAA | 0.9958 ± 0.0046 |
| GCCAGGTTCC | 1.09 ± 0.034 |
| GCCATATTGG | 0.9715 ± 0.0077 |
| GCCATCGATC | 1.017 ± 0.0079 |
| GCCATTTGAC | 1.02 ± 0.042 |
| GCCCACCACA | 1.08 ± 0.028 |
| GCCCACTATT | 0.988 ± 0.01 |

| Sequence | switch fluorescence ratio |
| --- | --- |
| GCCCCCTTGG | 2.02 ± 0.026 |
| GCCCCTGTTT | 1 ± 0.023 |
| GCCCGCAAGG | 1.42 ± 0.015 |
| GCCCGGGGCT | 1.028 ± 0.0057 |
| GCCCGTGGAA | 0.9893 ± 0.0057 |
| GCCCTATCAT | 0.981 ± 0.027 |
| GCCCTCACGT | 1.08 ± 0.081 |
| GCCCTGATGG | 1 ± 0.035 |
| GCCGAAGTTA | 1.12 ± 0.042 |
| GCCGACTCTG | 1.04 ± 0.048 |
| GCCGAGAAGT | 0.985 ± 0.027 |
| GCCGAGGGGT | 1.037 ± 0.008 |
| GCCGATAGGG | 0.9975 ± 0.0039 |
| GCCGCATGTG | 1.28 ± 0.036 |
| GCCGCCACCT | 1.07 ± 0.019 |
| GCCGCGCGCT | 1 ± 0.082 |
| GCCGCGGGAA | 1 ± 0.051 |
| GCCGCTACCT | 1.11 ± 0.079 |
| GCCGGAAAGT | 1.05 ± 0.07 |
| GCCGGAAGGC | 0.98 ± 0.076 |
| GCCGGCAAAT | 0.995 ± 0.051 |
| GCCGGGATGG | 1 ± 0.031 |
| GCCGGGCGGG | 0.999 ± 0.038 |

| Sequence | switch fluorescence ratio |
| --- | --- |
| GCCGGGGACA | 1.03 ± 0.053 |
| GCCGGGGACC | 0.98 ± 0.031 |
| GCCGGGGAGC | 1.02 ± 0.045 |
| GCCGGGGATG | 1.007 ± 0.0024 |
| GCCGGGGCGG | 1.006 ± 0.0041 |
| GCCGGGTCAG | 1.02 ± 0.026 |
| GCCGGTCGTC | 1.0461 ± 0.00046 |
| GCCGGTGCTC | 0.996 ± 0.021 |
| GCCGGTTTCT | 1.01 ± 0.031 |
| GCCGTCGTTG | 1 ± 0.019 |
| GCCGTGGGAG | 0.986 ± 0.052 |
| GCCGTGTTGG | 1 ± 0.032 |
| GCCGTTAACG | 0.969 ± 0.028 |
| GCCTAACGCG | 1.03 ± 0.018 |
| GCCTAATTTT | 0.984 ± 0.021 |
| GCCTAGTATA | 0.9714 ± 0.0049 |
| GCCTAGTTGT | 0.977 ± 0.028 |
| GCCTCGGGGC | 1.02 ± 0.032 |
| GCCTCTGGTC | 0.992 ± 0.028 |
| GCCTGATTTA | 0.95 ± 0.029 |
| GCCTGTTCGG | 0.977 ± 0.024 |
| GCCTGTTTTG | 1 ± 0.046 |
| GCCTTAGTCT | 0.962 ± 0.098 |

| Sequence | switch fluorescence ratio |
| --- | --- |
| GCCTTGTGCG | 1.01 ± 0.018 |
| GCCTTTAGGG | 1 ± 0.024 |
| GCCTTTGTTT | 0.986 ± 0.02 |
| GCCTTTTGCT | 0.988 ± 0.018 |
| GCCTTTTTGG | 1.02 ± 0.022 |
| GCGAAAAGAT | 0.982 ± 0.018 |
| GCGAAAGGCG | 0.992 ± 0.022 |
| GCGAACCCAA | 1.18 ± 0.048 |
| GCGAACGGTT | 1.03 ± 0.021 |
| GCGAATATGC | 1.1 ± 0.038 |
| GCGAATGTTT | 0.9812 ± 0.0029 |
| GCGAATTAAT | 0.979 ± 0.033 |
| GCGAATTGGG | 1.02 ± 0.024 |
| GCGACCAGGC | 1.14 ± 0.079 |
| GCGACCCTTT | 1.118 ± 0.0042 |
| GCGACGAGTA | 1.074 ± 0.004 |
| GCGAGAATGT | 0.9879 ± 0.0039 |
| GCGAGACCAG | 1.64 ± 0.051 |
| GCGAGAGAGT | 0.99812 ± 0.0009 |
